# Experimental data from the nanobody polyreactivity screen of Harvey et al. (2022).
# Experiment: yeast display, Sf9 membrane polyspecificity reagent, FACS + sequencing; frameworks hold sequencing errors
# Method in brief: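 A synthetic nanobody library was expressed on Saccharomyces cerevisiae BJ5465 by galactose induction for 36–48 hours. The library was stained for 1 hour at 4 °C with 10% biotinylated, detergent-solubilized Sf9 membrane reagent and enriched with streptavidin microbeads before FACS. Low and high (top ~1%) gates were set on anti-HA fluorescence for expression and streptavidin fluorescence for reagent binding, and each polyreactivity label reflects the gate of origin.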
row,Sequence,polyreactivity (PSR sort gate)
1,QVQLVESGGGLGQAGGSLSLSCAAYGRIYSRYAMGWYRQAPGKERELVAAINSGGITNYADSVKGRFTISRDNAKNTVYLQMNSLNPEDTAVYYCAAQARRSWGKYYYWGQGTQVPVSS,high polyreactivity
2,QVQLVESGGGLVQAGGSLRLSCAASGSTFRNYAMGWSRQAPGKERELVAAISGSGGRTKYADSVKGRFTISRDNAKNTVYLQMNSLKPEDTAVYYWNARFPDWALSEISHSTTYGLWGQGTLVTVSS,low polyreactivity
3,QVQLQESGGGLVQAGGSLRLSCAASGTIFRISDMGSYRQAPGKELEFVAAITYGANTYYADSGKGRFTISRDNAKNTVYLQMNSLKPEDTAVYYCAVPPVKETILDYWGQGTQVTVSS,low polyreactivity
4,QVKLKESVGGLVQAGGSLRLSCAASGSISATGHMGWYRQAPGEERELVAAINFGSNTYYADSVKGLFTISRDNAINTVYLQKSGLKPEDTAVYYWAVDGWYVGPYYYWGQGTQVTVSS,high polyreactivity
5,QVQLVESGGGLVQAGGSLRLSCAASGRIFGRNAMGWYRQAPGKERELVAAISSSGGRTYYADSVKGRFSISRDNAKNTVYLQMMSLKPEDTAVYYCAAVGSLYYYRYDYWGQGTQVTVSS,high polyreactivity
6,QVQLVESGGGLVQAGGSLRLSCAASGSIFIVNVMGWYRQAPGKERELVAGITTNGGITYYADSVKGRFTISRDNAKNTVYLQMNSLKPEDTAVYYCATRSASPSSIEMDYWGQGTQVTVSS,low polyreactivity
7,QVQLVESGGGLVQAGGSLRLSCAASGTTISANAMGWYRQAPGKERELVAAIRWSDGRTYYADSVKGRFTISRDNAKNTVYLQMNSLKPEDTAVYYCNRVLSYHRHKLGMGYWGQGTQVTVSS,high polyreactivity
8,QVQLVESGGGLVQAGGSLRLSCAASGRTLKYNAMGWYRQAPGKERELVAAISYSGSSTYYADSVKWRFTISRDNAKNTVYLQMNSLKPEDNAVYYCNSARPTAAYDYWGQGTQVTVSS,low polyreactivity
9,QVQLVESGGGLVQAGGSLRLSCAASGFTFRGNVMGWYRQAPGKERELVAGISSTGSTYYADSVKGRFTISRDNAKNTVYLQMYSVKPVDTAVYYCAAAAIYFRYDYWGQGTQVTVSS,high polyreactivity
10,QVQLVESGGGLVQAGGSLRLSCAASGSIFYIYAMGWYRKAPGKERELVASIDSGDSTNYADSVKGRFTISRDNAKNTVYLQMNSLKPEDTAVYYCNADTFSELTYYLYIGMDYWGQGTQVTVSS,low polyreactivity
11,QVQLLESGGGLVEAGGSLRLSCSASGSTYNAMGWYRQATGKEREFVAYITTGGGGTYYADSVKGRFTISRDNAKNTVYLQMNSLKPEETADYYCAAEDYRTRTYVYRYRYYFWGQGTQVTVAS,high polyreactivity
12,QVQLVESGGGLVQAGGSLRLSCAASGLIISWYAMGWNRQEPGTERELVAAISSGGSTTYADSVKGRFTISRDNAKNTVYLQMNSLKPEDTAVYYCNADQVFGYNYWGQGTQLTVSS,high polyreactivity
13,QVQLVESGGRLVQAGGSLRLSCAASGFIFPRYTRGWYRQAPGKESELVAGITLRGGSTYYADSVKGRFTISRDNAKNTVYLQMNSLKPEDTAVYYCARGISRGRSFGIGYDYWGQGTQVTVSS,low polyreactivity
14,QVQLVESGGGLVQAGGSLRLSCAASGSTFFAYAMGWYRQAPGKERELVAAITGRGSTYYADSVKGRFTISRDNAKNTVYLQMNSLKPEDTAVYYCAAQRSRRYYRLDYWGQGTQVTVSS,high polyreactivity
15,QVQLVESGGGLVQAGGSLRLSCAASGFTFYRYAMGWYRQAPGKERQLVAAISRRGGSTDYADSVKGRFTISRDNAKNTVYLQMNRLKPEDTAVYYCAASYSRGVGKLGYWGQGTQVTVSS,high polyreactivity
16,QLQLVESGGGLVQAGGSLRLSCAASGRTFWYYAMGWYRQAPGKESELVAGISRGGSTNYADSVKGRFTISRDNAKNTVYLQMKSLKPADTAVYYCIVGRWYSQGTTGVFKGGYWGQGTQVTVSS,low polyreactivity
17,QVQLVESGGGLVQAGGSLRLSCAASGSNFDDNAMGWYRQAPGKERELVAAINSTDITNYADSVKGRFTISRDNAKNTVYLQMTSLKPEDTAVYYCNVDDWGQGTQVTVSS,low polyreactivity
